Data: article PMC3605331, “Cloning and characterization of a novel cold-active glycoside hydrolase family 1 enzyme with β-glucosidase, β-fucosidase and β-galactosidase activities” (BMC Biotechnology, 2013)

Key:
[1] = tested on: T1, O=[N+]([O-])c1ccc(O[C@@H]2O[C@H](CO)[C@@H](O)[C@H](O)[C@H]2O)cc1; experiment: purified protein; assay type: biochemical, uncultured bacterium; settings: 20 mM phosphate buffer, 20°C, substrate 1.0-5.0 mM
T1 construct: E. coli LMG194; monomer

[2] = tested on: T2, O=[N+]([O-])c1ccccc1O[C@@H]1O[C@H](CO)[C@H](O)[C@H](O)[C@H]1O; experiment: purified protein; assay type: biochemical, uncultured bacterium; settings: 20 mM phosphate buffer, 20°C, substrate 1.0-5.0 mM
T2 construct: E. coli LMG194; monomer

Substance: BglMKg (uncultured bacterium)
- Km [1]: 0.16 ± 0.03 mM
- kcat [1]: 11.7 ± 0.26 s⁻¹
- kcat/Km [1]: 73400 M⁻¹ s⁻¹
- Km [2]: 9.04 ± 1.39 mM
- kcat [2]: 12.4 ± 1.35 s⁻¹
- kcat/Km [2]: 1370 M⁻¹ s⁻¹
